Test results as given in the supplement of paper PMC10567573.

B1: SASS6 (parent)
chain: QKELQDVGQSLRIKEQEVCKLQEQ
B2: FAM50A (parent)
chain: HIFPASRWEPYDPEKKWDKYTIR

Variants of: B1
Assay: protein stability index of a GFP-peptide fusion (GPS, HEK-293T) (PSI 1-6); higher = more stable
Conditions: c terminus: a fixed tail appended
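Note: lentivirally expressed fusions sorted by FACS into six bins by GFP to DsRed ratio, PSI derived from sequencing read proportions per bin multiplied by bin number.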

Protein stability index: each site, then its substitutions
I13: C 3.3, D 5.72, E 5.34, F 4.85, H 4.64, K 5.29, L 5.57, M 5.64, N 5.31, P 5.38, R 5.7, S 5.45, T 5.13, V 5.44, W 4.57, Y 4.95
K14: A 5.04, C 5.54, D 5.63, E 5.49, F 4.38, G 5.46, H 4.78, I 4.43, M 4.47, N 4.6, P 4.73, Q 4.9, R 5.19, S 5.33, T 5.75, V 4.94, Y 4.68
E15: A 5.01, C 4.11, D 5, F 3.24, G 5.1, H 4.49, I 2.8, K 3.7, L 4.15, M 4.54, N 3.15, P 4.66, Q 4.66, R 4.21, S 4.85, T 4.56, V 3.54, W 2.06
Q16: A 5.12, C 4.99, D 5.43, E 5.63, G 5.83, H 5.13, I 4.84, K 5.48, L 4.71, M 4.96, N 5.13, S 5.56, T 5.28, V 5.21, W 4.66, Y 4.68
E17: A 4.66, C 4.56, D 5.55, G 4.96, H 5.02, I 4.28, K 5.25, L 4.77, M 4.71, N 4.33, P 4.55, Q 4.62, R 4.54, S 4.97, T 4.95, Y 4.22
V18: A 4.16, D 5.94, E 5.95, F 4.5, G 4.49, H 5.11, I 4.75, K 5.32, L 5.25, M 5.46, N 5.19, P 3.51, Q 5.54, R 5.62, S 5.35, T 4.74, W 4.28, Y 5.03
C19: A 4.79, D 5.56, E 5.78, F 5.35, H 5.61, I 4.35, K 4.88, M 5.34, P 4.9, Q 5.61, R 5.23, S 5.53, T 5.31, V 5.25, W 4.59, Y 5.19
K20: C 5.11, F 4.31, G 5.36, H 4.49, I 5.15, L 5.02, M 5.24, N 5.12, P 4.98, R 4.82, S 5.55, T 5.09, V 5.26, Y 4.66
L21: A 5.02, C 5.73, D 5.84, E 5.78, F 5.14, G 5.9, H 5.57, I 5.43, K 5.81, M 5.03, N 5.68, P 5.4, Q 5.42, S 5.27, T 5.68, W 4.92, Y 5.38
Q22: C 4.34, D 5.58, E 5.4, F 4.5, H 4.79, I 4.69, K 5.25, L 4.44, M 4.88, N 5.11, P 5.27, R 5.07, T 5.06, V 4.4, W 4.83, Y 4.67
E23: C 4.29, D 5.27, F 4.52, G 5.58, H 5.02, I 4.4, K 4.89, L 4.69, M 4.24, N 4.5, P 4.49, Q 4.71, R 4.76, S 4.82, T 4.99, V 4.51, Y 4.12
Q24: A 5.21, C 5, D 5.04, E 5.77, F 4.44, G 5.12, H 4.95, I 4.7, K 5.27, L 5.16, M 5.05, N 5.39, P 5.58, S 4.43, T 5.35, V 4.92, W 4.84, Y 4.57

Variants of: B2
Assay: as above
Conditions: c terminus: native

Protein stability index of substitutions, site by site:
R23: L 2.54, D 2.58, H 2.2, A 3.17, C 2.08, M 2.1
Y20: V 2.28, I 1.49, W 2.96, A 1.86, T 3.05, P 2.93
P4: D 2.22, K 2
E14: T 1.96, R 2.49, Y 2.68, I 2.68, W 1.65, G 2.5, K 2.27, H 1.76, N 2.42
W17: Y 2.29, H 2.42, E 3.48, P 2.56, C 3.46, V 2.62, G 2.43
P10: H 2.88, S 2.91, T 2.3, V 1.94
K19: Y 1.35, L 2.04, C 1.81, H 2.03
A5: D 2.04, H 1.8, V 1.77, S 3.2, K 2.31, G 2.14, P 3.42
F3: A 3.12, D 3.92, Q 3.31, V 2.31, H 1.96, E 2.75, L 2.63
D18: M 1.92, A 1.96, Q 2, V 2.17, P 2.99, R 2.01, C 2.61
R7: K 2.1, M 2.6, Q 2.47, W 1.22, H 2, N 2.38
T21: K 1.93, S 1.89, C 1.97, V 2.55
I22: G 2.29, H 2.19, Q 2.91, W 2.06, K 3.3, S 2.72, N 3.07, E 2.25, R 1.59, A 2.03, L 2.25
K15: Y 2.12, S 2.67, Q 2.13, R 1.8, T 2.33, W 3, N 1.71
E9: S 2.76, R 2.43, M 1.77, I 3.95, W 2.74, A 2.24, D 1.85, Y 1.51
K16: Q 2.79, D 1.78, C 1.96, F 3.28, T 1.81, G 1.77, H 1.72, L 2.63
W8: R 3.54, E 3.6, K 2.96, M 3.42, I 3.38
S6: D 1.87, G 2.98, A 2.66, N 2.86, Q 3.79, F 2.92
I2: Q 3.11, V 2.88, M 2.35, P 2.15
H1: V 1.45, G 3.23
D12: R 2.07, C 1.89, M 2.6, N 2.08
Y11: T 2.42, C 2.48, H 2.35, I 2.51, S 2.83
P13: H 2.19, N 2.05, K 2.25, V 2.72, R 2, W 1.25
